The source of these data is article PMC3502708 (Journal of molecular biology, 2012).

Where no end group is shown, it is not given here. Me3 = trimethyl (trimethylated lysine)

Assay [1] deals with T1, MORF PHD1/2 fingers (aa 211-329) (human, UniProt Q8WYB5-3 211-329).
T1 sequence (looked up): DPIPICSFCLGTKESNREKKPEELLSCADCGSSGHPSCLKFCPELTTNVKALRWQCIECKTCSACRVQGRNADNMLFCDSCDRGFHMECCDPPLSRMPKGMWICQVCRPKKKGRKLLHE
The experiment in a line: NMR titration.

Assay [2] concerns the target MOZ PHD1/2 fingers (aa 207-318) (human, UniProt Q92794 207-318). The experiment in a line: other fluorescence titration.
Assay [3] has as its target T1, MORF PHD1/2 fingers (aa 211-329). The experiment in a line: other fluorescence titration.

MOZ PHD1/2 fingers (aa 207-318), sequence (Q92794 207-318): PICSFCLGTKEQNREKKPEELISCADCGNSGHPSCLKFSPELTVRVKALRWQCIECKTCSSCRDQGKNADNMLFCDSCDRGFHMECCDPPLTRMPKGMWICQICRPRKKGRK

B1: histone H3 peptide trimethylated at Lys4 (peptide)
chain: ARTK(Me3)QTARKSTG
In the case of B1, the dissociation constant Kd in assay [1] was ~2000 µM.

B2: histone H3 peptide trimethylated at Lys4 and acetylated at Lys9 (peptide)
chain: ARTK(Me3)QTARK(Ac)STG
As to B2, the “fold stronger than H3K4me3” value in assay [1] is ~4 fold.

B3: histone H3 peptide acetylated at Lys9 (length not stated for the experiment) (peptide)
chain: ARTKQTARKSTG
modifications: acetyl-lysine at 9
For the molecule B3, the results for the Kd in assay [2] and in assay [3] were 1.5 µM and 1.4 µM, respectively.

B4: histone H3 peptide acetylated at Lys9, amino acids 1-12 (peptide, UniProt P68431 2-13, looked up)
peptide: ARTKQTARKSTG
modifications: acetyl-lysine at 9
In the case of B4, the binding result in assay [1] is listed as “binds”.

B5: unmodified histone H3 peptide, amino acids 1-12 (peptide, UniProt P68431 2-13, looked up)
peptide: ARTKQTARKSTG
In the case of B5, in assay [1], the binding result is given as “binds”.

For orientation: Kd means a measure of binding affinity in units of concentration. Read a low Kd as higher affinity.
